Paper PMC2777448 (Nucleic Acids Research, 2009)

Experiments:
Experiment in all cases: pull-down
[1] = target: T1, (His)9-tagged srs2 1–910 (S. cerevisiae, UniProt P12954 1-910)
T1 sequence: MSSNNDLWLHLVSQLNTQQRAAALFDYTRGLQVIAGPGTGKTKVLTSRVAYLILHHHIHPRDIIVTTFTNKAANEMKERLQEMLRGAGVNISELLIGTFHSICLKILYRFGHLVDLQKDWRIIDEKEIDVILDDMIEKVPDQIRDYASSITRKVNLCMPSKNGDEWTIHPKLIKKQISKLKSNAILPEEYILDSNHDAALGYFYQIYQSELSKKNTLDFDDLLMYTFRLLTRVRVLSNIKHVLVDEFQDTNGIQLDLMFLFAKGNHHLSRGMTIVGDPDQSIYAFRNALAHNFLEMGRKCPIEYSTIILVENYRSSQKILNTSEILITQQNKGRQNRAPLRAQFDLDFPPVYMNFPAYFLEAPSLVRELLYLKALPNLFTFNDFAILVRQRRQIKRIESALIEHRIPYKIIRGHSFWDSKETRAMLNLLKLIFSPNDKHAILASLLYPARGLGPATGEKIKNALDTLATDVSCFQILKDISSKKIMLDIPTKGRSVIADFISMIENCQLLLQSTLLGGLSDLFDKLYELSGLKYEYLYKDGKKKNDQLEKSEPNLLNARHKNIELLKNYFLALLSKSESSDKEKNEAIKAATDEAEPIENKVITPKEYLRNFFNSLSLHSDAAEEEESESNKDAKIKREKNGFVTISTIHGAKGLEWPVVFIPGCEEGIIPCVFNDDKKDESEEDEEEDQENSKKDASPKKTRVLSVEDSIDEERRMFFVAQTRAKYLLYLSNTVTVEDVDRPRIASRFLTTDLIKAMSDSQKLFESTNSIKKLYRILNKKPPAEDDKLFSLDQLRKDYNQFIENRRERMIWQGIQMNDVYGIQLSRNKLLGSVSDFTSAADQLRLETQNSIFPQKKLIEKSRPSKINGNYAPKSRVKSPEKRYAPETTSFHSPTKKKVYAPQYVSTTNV

[2] = target: T2, (His)9-tagged full length Srs2 (S. cerevisiae, UniProt P12954 1-1174)
T2 sequence: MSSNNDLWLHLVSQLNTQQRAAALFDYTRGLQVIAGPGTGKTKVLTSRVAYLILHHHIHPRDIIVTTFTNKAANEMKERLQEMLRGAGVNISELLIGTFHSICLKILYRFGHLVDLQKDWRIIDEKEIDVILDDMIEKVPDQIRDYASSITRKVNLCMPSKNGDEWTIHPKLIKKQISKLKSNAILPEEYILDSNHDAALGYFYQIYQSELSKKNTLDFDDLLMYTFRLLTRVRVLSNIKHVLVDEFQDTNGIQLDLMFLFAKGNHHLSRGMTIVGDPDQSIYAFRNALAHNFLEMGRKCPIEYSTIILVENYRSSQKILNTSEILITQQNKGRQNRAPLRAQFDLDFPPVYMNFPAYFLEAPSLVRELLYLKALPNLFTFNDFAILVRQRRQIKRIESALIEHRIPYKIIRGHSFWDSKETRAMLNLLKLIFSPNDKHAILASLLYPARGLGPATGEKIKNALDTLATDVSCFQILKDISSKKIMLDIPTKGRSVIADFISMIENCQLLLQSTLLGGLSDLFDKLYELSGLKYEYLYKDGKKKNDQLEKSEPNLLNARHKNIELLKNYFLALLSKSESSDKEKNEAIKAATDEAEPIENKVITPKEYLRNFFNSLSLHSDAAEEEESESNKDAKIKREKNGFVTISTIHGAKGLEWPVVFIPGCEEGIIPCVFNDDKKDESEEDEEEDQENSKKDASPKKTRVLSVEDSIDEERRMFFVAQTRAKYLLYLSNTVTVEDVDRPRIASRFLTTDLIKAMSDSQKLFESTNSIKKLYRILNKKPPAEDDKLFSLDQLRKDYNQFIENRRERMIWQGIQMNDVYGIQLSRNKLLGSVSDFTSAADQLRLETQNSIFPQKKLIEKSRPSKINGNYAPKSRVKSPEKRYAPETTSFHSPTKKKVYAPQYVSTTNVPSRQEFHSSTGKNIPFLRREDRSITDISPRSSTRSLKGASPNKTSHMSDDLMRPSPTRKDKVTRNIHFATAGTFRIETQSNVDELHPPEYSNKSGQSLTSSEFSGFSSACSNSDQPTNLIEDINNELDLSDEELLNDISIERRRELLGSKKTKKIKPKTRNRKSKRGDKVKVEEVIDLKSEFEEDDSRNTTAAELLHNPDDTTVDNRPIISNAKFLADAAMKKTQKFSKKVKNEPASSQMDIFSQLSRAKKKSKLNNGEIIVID

[3] = target: T3, (His)9-tagged srs2 1–998 (S. cerevisiae, UniProt P12954 1-998)
T3 sequence: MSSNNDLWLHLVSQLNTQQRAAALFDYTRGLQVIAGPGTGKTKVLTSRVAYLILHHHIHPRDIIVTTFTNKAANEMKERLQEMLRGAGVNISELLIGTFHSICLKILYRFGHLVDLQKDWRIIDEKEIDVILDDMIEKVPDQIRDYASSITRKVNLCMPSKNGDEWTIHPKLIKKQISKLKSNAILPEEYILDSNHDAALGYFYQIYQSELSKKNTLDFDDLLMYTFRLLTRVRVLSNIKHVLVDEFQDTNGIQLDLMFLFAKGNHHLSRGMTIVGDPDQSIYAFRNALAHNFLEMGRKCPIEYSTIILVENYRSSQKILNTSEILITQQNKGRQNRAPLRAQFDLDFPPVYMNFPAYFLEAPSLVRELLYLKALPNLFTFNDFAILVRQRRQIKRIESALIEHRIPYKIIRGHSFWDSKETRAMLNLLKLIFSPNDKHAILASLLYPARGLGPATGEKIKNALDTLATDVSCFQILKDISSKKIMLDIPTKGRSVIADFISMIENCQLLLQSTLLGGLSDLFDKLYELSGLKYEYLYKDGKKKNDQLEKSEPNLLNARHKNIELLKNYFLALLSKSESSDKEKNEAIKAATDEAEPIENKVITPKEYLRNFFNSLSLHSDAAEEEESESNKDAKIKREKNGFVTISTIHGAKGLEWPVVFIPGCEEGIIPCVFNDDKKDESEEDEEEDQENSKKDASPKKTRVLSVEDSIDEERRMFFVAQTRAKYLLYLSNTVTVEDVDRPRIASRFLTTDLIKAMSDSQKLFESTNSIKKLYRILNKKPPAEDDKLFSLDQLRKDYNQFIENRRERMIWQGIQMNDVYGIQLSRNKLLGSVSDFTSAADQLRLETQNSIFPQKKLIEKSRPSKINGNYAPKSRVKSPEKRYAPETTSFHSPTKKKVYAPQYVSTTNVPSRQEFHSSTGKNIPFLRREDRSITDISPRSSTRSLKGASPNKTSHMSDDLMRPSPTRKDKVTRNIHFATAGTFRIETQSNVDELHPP

[4] = target: T4, (His)9-tagged srs2 1–890 (S. cerevisiae, UniProt P12954 1-890)
T4 sequence: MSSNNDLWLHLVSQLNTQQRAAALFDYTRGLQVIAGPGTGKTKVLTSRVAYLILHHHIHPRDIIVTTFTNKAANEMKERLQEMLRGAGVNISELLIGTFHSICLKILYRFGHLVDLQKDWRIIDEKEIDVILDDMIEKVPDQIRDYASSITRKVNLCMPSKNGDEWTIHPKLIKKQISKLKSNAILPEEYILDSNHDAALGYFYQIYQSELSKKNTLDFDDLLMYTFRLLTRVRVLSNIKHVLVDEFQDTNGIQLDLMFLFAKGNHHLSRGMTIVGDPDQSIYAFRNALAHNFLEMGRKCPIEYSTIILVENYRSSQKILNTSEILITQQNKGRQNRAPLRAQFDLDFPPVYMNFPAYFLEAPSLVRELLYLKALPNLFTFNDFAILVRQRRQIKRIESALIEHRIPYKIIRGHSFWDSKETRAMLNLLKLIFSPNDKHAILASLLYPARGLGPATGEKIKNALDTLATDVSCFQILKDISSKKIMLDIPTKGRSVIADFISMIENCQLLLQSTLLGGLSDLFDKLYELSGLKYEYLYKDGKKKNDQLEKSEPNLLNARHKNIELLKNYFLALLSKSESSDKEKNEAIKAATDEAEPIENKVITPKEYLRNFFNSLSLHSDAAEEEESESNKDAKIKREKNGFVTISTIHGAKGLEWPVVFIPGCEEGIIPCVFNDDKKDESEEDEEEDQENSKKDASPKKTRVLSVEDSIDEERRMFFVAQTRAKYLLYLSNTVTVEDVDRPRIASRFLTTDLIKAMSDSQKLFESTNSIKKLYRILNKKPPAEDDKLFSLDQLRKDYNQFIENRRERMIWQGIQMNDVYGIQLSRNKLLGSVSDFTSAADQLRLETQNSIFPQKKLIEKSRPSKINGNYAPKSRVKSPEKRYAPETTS

Measured: binding result

B1: Rad51 (natural protein)
chain: MSQVQEQHISESQLQYGNGSLMSTVPADLSQSVVDGNGNGSSEDIEATNGSGDGGGLQEQAEAQGEMEDEAYDEAALGSFVPIEKLQVNGITMADVKKLRESGLHTAEAVAYAPRKDLLEIKGISEAKADKLLNEAARLVPMGFVTAADFHMRRSELICLTTGSKNLDTLLGGGVETGSITELFGEFRTGKSQLCHTLAVTCQIPLDIGGGEGKCLYIDTEGTFRPVRLVSIAQRFGLDPDDALNNVAYARAYNADHQLRLLDAAAQMMSESRFSLIVVDSVMALYRTDFSGRGELSARQMHLAKFMRALQRLADQFGVAVVVTNQVVAQVDGGMAFNPDPKKPIGGNIMAHSSTTRLGFKKGKGCQRLCKVVDSPCLPEAECVFAIYEDGVGDPREEDE
binds: all assays above
